US10526416B2, “Anti-HER3 antibodies and uses of same” (Yeda Research and Development Co. Ltd., priority 2014, dated 2020)

B1: NG83: anti-HER3 mAb; light chain CDRs SEQ ID NOs: 7-9, heavy chain CDRs 10-12 (antibody, V domains shown)
VH: QIQLVQSGPELKKRGETVKISCKASGYTFTNYGMNWVRQAPGKGLKCMGWINTYAGEPTYADDFKGRFAFSLDSSASTAYLQINNLKNEDMATYFCARGGITGAMDYWGQGTSVTVSS
VL: DVVMTQKTSSLSTSLGDRVTISCRASQDIRNYLNWYQQKPDGTVKLLIYYTSRLHSGVPSRFSGSGSGTDYSLTISDLEQEDIATYFCQQGNTLPWTFGGGTKLAIK
modifications: VH chain of NG83 polypeptide; VL chain of NG83 polypeptide
B2: XC252: anti-HER3 mAb generated as described in Chen X, et al. (1996); heavy and light chain SEQ ID NOs: 49 and 53 (antibody, V domains shown)
VH: EVQLQQSGAELVRPGVSVKISCKGSGYTFTDYAMHWVKQSHAKSLEWIGVISTYYGDPRDNQKFKGKATMTVDKSSSTAYMELARLTSEDSAIYYCARGDYDWYAIDYWGQGTSVTVSS
VL: DVVMTQTPLSLPVSLGDQASISCRSSQSIVHSDGNTYLEWYLQKPGQSPKLLIYKVSNRFSGVPDRFSGSGSGTDFTLKISRVEAEDLGVYYCFQGSHVPPTFGGGTKLEIK
modifications: VH chain of XC252 polypeptide; VL chain of XC252 polypeptide

What was measured:
BxPC3 xenografts = assay: BxPC3 cell xenografts in CD1-Nude mice; format: in vivo; settings: 0.2 mg/injection IP every 3 days for 5 weeks, 7 to 8 mice per group
Experimental: (§1) FIGS. 15A-F show the effects of a mixture of two anti HER3 mAbs, in vivo on BxPC3 cell xenografts and in vitro. (FIGS. 15A-C) CD1-Nude mice were grafted subcutaneously with 5×10^6 BxPC3 cells. Once tumors became palpable (after 13 days), the mice were randomized into group of 8 mice and treated every 3 days for 5 weeks. The control group (CTRL) was injected intra-peritoneally (IP) with 200 μl PBS. The other groups were treated with mAb alone or in combination at a final concentration of 0.2 mg/0.2 ml of PBS per mouse. The mice were weighted once a week and the tumors measured twice a week. An average tumor size of 7-8 mice (+/−SEM) is shown. (FIGS. 15D-F) Proliferation assays using MTT were performed on BxPC-3. 5,000 cells per well were plated the day before and treated for 72 h with the indicated mAb treatment. Decreasing concentrations of the indicated mAb (alone or in combination) were used in medium supplemented with 1% serum and NRG (10 ng/ml).
All animal studies were approved by the Weizmann Institute's Review Board (IRB). Tumor bearing CD1/nude mice were randomized in groups of five-ten mice and injected subcutaneously in the right flank with cancer cells (3-5×10^6 per mouse depending on the cell line). mAbs were injected intraperitoneally at a total dose of 200 μg per mouse per injection, twice a week, for 5 weeks or until tumors reached the size of 1,500 mm^3. In experiments evaluating the effect of the TKI AZD-9291, Vehicle (Vehicle formulation: HPMC 0.5% (sigma Cat#56340), Tween80 0.1% (Sigma Cat #P8074 in water), Erlotinib at a dose of 50 mg/kg per injection, or AZD9291 at a dose of 1 or 5 mg/kg per injection were injected daily intraperitoneally. In one experiment (FIG. 16), mice were treated daily with Erlotinib at a dose of 50 mg/kg per injection until tumors reached a size of 800 mm^3 and only then were treated as indicated. Tumor volume and body weight were evaluated twice and once per week, respectively. Mice were euthanized when tumor size reached 1,500 mm^3. […] Survival of the tumor bearing mice was recorded and depicted by Kaplan-Meier analysis. […]

BxPC3 cells = assay: MTT assay on BxPC3 cells in culture; format: cell-based, human; settings: 3 days
Experimental: as §1
To determine if the combination of NG33 mAb with another anti-HER3 mAb is more efficient than using NG33 alone, the combination of two mAbs, NG33 and XC252, was tested on several tumor cell lines, which were grafted subcutaneously (gastric: N87, lung: A549, pancreatic: BxPC3, ovarian: OVCAR-5, and head and neck: CAL-27, FIG. 14). This pilot was performed with 3 mice per group. Mice were injected twice a week with the mAb combination or with PBS. The best responder of these in vivo models for solid tumor growth was the BxPC3 xenograft model. […] This experiment was performed on 7 to 8 mice per group. The mice were treated every 3 days with PBS, each mAb alone or a mAb combination, for 5 weeks (0.2 mg/injection). […] In order to reinforce the in vivo data, the cytotoxicity of each mAb alone or in combination with NG33 was tested on BxPC3 cells in culture (FIGS. 15D, 15E and 15F). Decreasing concentrations of mAb were used and a MTT assay was performed following 3 days of treatment. […] On the contrary, XC252 used alone has a […] cytotoxic impact on BxPC3 proliferation leading to 60% inhibition of cell survival at high concentration.

Molecule	effect on BxPC3 xenograft tumor growth (BxPC3 xenografts)	effect on BxPC3 proliferation/survival (in words) (BxPC3 cells)	inhibition of cell survival (BxPC3 cells; high concentration, 1% serum, NRG 10 ng/ml) [%]
B1	no statistically significant ability to decrease tumor growth	did not interfere with cell proliferation	
B2	no statistically significant ability to decrease tumor growth		60
